Assay results from PMC4586175 (Oncogene, 2009).

Target: purified GST-RACK1 (human, UniProt P63244 1-317)
Experiment: pull-down

binding result: binds
B1: purified His-WRN protein (natural protein)
chain: not shown
